In assay [1] the target is T1, human TIM-3 on cells (human, UniProt Q8TDQ0 22-301). Description: cell-based or functional assay.
For assay [2], the target named is T2, cynomolgus TIM-3 on isolated cyno CD14+ monocytes (cynomolgus).
T2 construct: whole, on cells
Description: flow cytometry, cyno CD14+ monocytes cyno3.

Assay [3] concerns the target T2, cynomolgus TIM-3 on isolated cyno CD14+ …. Kind of assay: flow cytometry, cyno CD14+ monocytes cyno2. (A flow cytometer gives signals particle by particle.)
For assay [4], the target named is T3, monomeric cyno Tim3-ECD (cynomolgus, UniProt A0A2K5U3G7 22-195).
T3 construct: extracellular domain; also called cyTim3
T3 sequence: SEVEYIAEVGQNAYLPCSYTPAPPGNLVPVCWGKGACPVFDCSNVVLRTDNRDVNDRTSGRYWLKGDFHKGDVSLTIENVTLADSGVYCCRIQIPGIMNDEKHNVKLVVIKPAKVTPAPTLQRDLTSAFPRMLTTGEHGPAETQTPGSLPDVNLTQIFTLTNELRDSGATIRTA
Kind of assay: SPR Biacore, antibody captured by anti-mouse IgG. (In general: SPR reads the build-up and loss of mass on a sensor chip optically.)
Description: (§1) Therefore, an anti-mouse IgG was immobilized by amine coupling to the surface of a (Biacore) CM5 sensor chip. The samples were then captured and hu/cy Tim3-ECD was bound to them. The sensor chip surface was regenerated after each analysis cycle. The equilibrium constant KD was finally gained by fitting the data to a 1:1 langmuir interaction model.
(§2) Flow cell temperature was set to 25° C. and sample compartment temperature to 12° C. The system was primed with running buffer. The samples were injected for 30 seconds with a concentration of 200 μg/ml and bound to the spots 1 and 5 of each flow cell, allowing the measurement of eight samples in parallel. Then a complete set of different (monomeric cyno, monomeric human and huFc fused dimeric human Tim3-ECD) concentrations (s. Table X) was injected over each sample for 240 s followed by a dissociation time of 30/1800 s (s. Table 1). Each analysis cycle (sample capture, spot 1 and 5—Tim3 ECD injection) was then regenerated with a 30 seconds long injection of Glycine-HCl pH 1.7. The flow rate was set to 30 μl/min for the whole run. Finally, the double referenced data was fitted to a 1:1 langmuir interaction model with the Biacore B4000 Evaluation Software.

Assay [5] concerns the target T4, monomeric human Tim3-ECD (human, UniProt Q8TDQ0 22-202).
T4 construct: also called huTim3
Kind of assay: SPR Biacore, antibody captured by anti-mouse IgG.
Description: as §1, §2

In assay [6] the target is T1, human TIM-3 on cells. Description: flow cytometry, human CD14+ monocytes donor3.
Description: (§3) CD14+ Monocytes were isolated from anticoagulated peripheral blood of healthy donors by density gradient centrifugation using Ficoll-Paque (GE Healthcare) (see General Protocols in the User Manuals or visit www.miltenyibiotec.com/protocols) and subsequent positive selection via CD14 MicroBeads. First the CD14+ cells are magnetically labeled with CD14 MicroBeads. Then the cell suspension is loaded onto a MACS® Column which is placed in the magnetic field of a MACS Separator. The magnetically labeled CD14+ cells are retained in the column. The unlabeled cells run through, this cell fraction is depleted of CD14+ cells. After removal of the column from the magnetic field, the magnetically retained CD14+ cells can be eluted as the positively selected cell fraction. After centrifugation at 200×g for 10 min at room temperature the monocytes were harvested and used directly in binding assay or resuspended in freezing medium (10% DMSO, 90% FCS) at 1.0E+07 cells/ml and stored in liquid nitrogen.
(§4) 1×10⁵ CD14+ isolated human monocytes (50 μl/well) were put into 98 well-v bottom MTP in fresh culture medium and incubated with Redimune® NF Liquid for 15 min at RT to block unspecific binding. […] After washing and centrifugation MFI signals of stained cells were analyzed by BD Biosciences FACSCanto flow cytometer.
Assay [7] concerns the target T1, human TIM-3 on cells. Kind of assay: flow cytometry, human CD14+ monocytes donor1.
In assay [8] the target is T2, cynomolgus TIM-3 on isolated cyno CD14+ …. Description: flow cytometry, cyno CD14+ monocytes cyno1.
Description: CD14+ Monocytes were isolated from cynomolgus monkey anticoagulated peripheral blood (Covance) by density gradient centrifugation using Ficoll-Paque (GE Healthcare) (see General Protocols in the User Manuals or visit www.miltenyibiotec.com/protocols) and subsequent positive selection via NHP CD14 MicroBeads. First the CD14+ cells are magnetically labeled with CD14 MicroBeads. Then the cell suspension is loaded onto a MACS® Column which is placed in the magnetic field of a MACS Separator. The magnetically labeled CD14+ cells are retained in the column. The unlabeled cells run through, this cell fraction is depleted of CD14+ cells. After removal of the column from the magnetic field, the magnetically retained CD14+ cells can be eluted as the positively selected cell fraction. After centrifugation at 200×g for 10 min at room temperature the monocytes were harvested and used directly in binding assay or resuspended in freezing medium (10% DMSO, 90% FCS) at 1.0E+07 cells/ml and stored in liquid nitrogen.
1×10⁵ CD14+ isolated cyno monocytes (50 μl/well) were put into 98 well-v bottom MTP in fresh culture medium and incubated with Redimune® NF Liquid for 15 min at RT to block unspecific binding. Than 50 μl/well of Alexa488 labeled anti-TIM3 (10 μg/ml in cell culture medium) were added and incubated for 1 h at 4° C. After washing and centrifugation MFI signals of stained cells were analyzed by BD Biosciences FACSCanto flow cytometer.
For assay [9], the target named is T1, human TIM-3 on cells. Description: flow cytometry, human CD14+ monocytes donor2.
Description: as §3, §4
The target in assay [10] is T1, human TIM-3 on cells. Kind of assay: cell ELISA, CHO-Tim3.
Assay [11] concerns the target T5, Tim3-ECD-His-Biotin (human, UniProt Q8TDQ0 22-202).
T5 construct: also called human Tim3 (ELISA); Biochem Human
Description: ELISA, human Tim3; EC50 relative to the sample's max value. (ELISA stands for enzyme-linked immunosorbent assay.)

Assay [12] deals with T5, Tim3-ECD-His-Biotin. Description: ELISA, human Tim3.
The target in assay [13] is T4, monomeric human Tim3-ECD. Kind of assay: SPR Biacore, monovalent Tim3.
Description: as §1, §2
In assay [14] the target is T1, human TIM-3 on cells. Kind of assay: cell ELISA, CHO-Tim3; EC50 relative to the sample's max value.
Assay [15] concerns the target T6, huFc fused dimeric human Tim3-ECD (human, UniProt Q8TDQ0 22-202).
T6 construct: also called huTim3Fc; bivalent Tim3
Kind of assay: SPR Biacore, bivalent Tim3.
Description: as §1, §2

Assay [16] deals with T6, huFc fused dimeric human Tim3-ECD. Kind of assay: SPR Biacore, antibody captured by anti-mouse IgG.
Description: as §1, §2
For assay [17], the target named is T7, cynomolgus Tim3 (ELISA) (cynomolgus, UniProt A0A2K5U3G7 22-193).
T7 construct: also called Biochem Cyno; cyno TIM3
T7 sequence: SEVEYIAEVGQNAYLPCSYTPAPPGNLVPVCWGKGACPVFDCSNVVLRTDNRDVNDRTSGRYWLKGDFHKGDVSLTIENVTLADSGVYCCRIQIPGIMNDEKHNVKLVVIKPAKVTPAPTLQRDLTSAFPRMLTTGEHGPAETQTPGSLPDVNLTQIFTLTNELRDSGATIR
Description: ELISA, cyno Tim3.

In assay [18] the target is T5, Tim3-ECD-His-Biotin. Description: ELISA on Tim3-ECD-His-Biotin.
Description: After washing (3×90 μl/well with PBST-buffer) 25 μl aTim3 samples or diluted (1:2 steps) reference antibody aTim3 F38-2E2 (Biolegend) was added and incubated 1 h at RT. After washing (3×90 μl/well with PBST-buffer) 25 μl/well sheep-anti-mouse-POD (GE NA9310V) was added in 1:9000 dilution and incubated at RT for 1 h while shaking at 400 rpm rotation. After washing (4×90 μl/well with PBST-buffer) 25 μl/well TMB substrate (Calbiochem, #CL07) was added and incubated until OD 1.5-2.5. Then the reaction was stopped by addition of 25 μl/well 1N HCL-solution.
The target in assay [19] is T1, human TIM-3 on cells. Kind of assay: cell ELISA, CHO-K1 expressing human Tim3.
Description: Then the reaction was stopped by addition of 25 μl/well 1N HCL-solution.
Assay [20] concerns the target T1, human TIM-3 on cells. Kind of assay: cell-based or functional assay. This is another data set of the same source.
Assay [21] has as its target T7, cynomolgus Tim3 (ELISA). Kind of assay: ELISA, cyno Tim3; EC50 relative to the sample's max value.
Assay [22] concerns the target T8, cynomolgus FolR1 ECD-AcTev-Fcknob-Avi tag + Fc hole, biotinylated monomeric Fc fusion (cynomolgus, UniProt P0DOX5 223-449 = IgG part).
T8 construct: also called cyFolR1; cyno FolR1-Fc
Description: SPR, apparent KD, bivalent binding (avidity).
Description: (§5) Binding of FolR1 binders as IgG or in the T-cell bispecific format to different recombinant folate receptors (human FolR1, 2 and 3, murine FolR1 and cynomolgus FolR1; all as Fc fusions) was assessed by surface plasmon resonance (SPR).
Recombinant biotinylated monomeric Fc fusions of human, cynomolgus and murine Folate Receptor 1 (FolR1-Fc) were directly coupled on a SA chip using the standard coupling instruction (Biacore, Freiburg/Germany). The immobilization level was about 300-400 RU. The anti-FolR1 IgGs or T cell bispecifics were passed at a concentration range from 2.1 to 500 nM with a flow of 30 μL/minutes through the flow cells over 180 seconds. The dissociation was monitored for 600 seconds. Bulk refractive index differences were corrected for by subtracting the response obtained on reference flow cell immobilized with recombinant biotinylated IL2 receptor Fc fusion. […] The binding curves resulting from the bivalent binding of the IgGs or T cell bispecifics were approximated to a 1:1 Langmuir binding and fitted with that model (which is not correct, but gives an idea of the avidity). The apparent avidity constants for the interactions were derived from the rate constants of the fitting using the Bia Evaluation software (GE Healthcare).

The target of assay [23] is T8, cynomolgus FolR1 ECD-AcTev-Fcknob-Avi …. Description: SPR, monovalent, antibody captured by anti-Fab.
Description: as §5
For affinity measurement, direct coupling of around 6000-7000 resonance units (RU) of the anti-human Fab specific antibody (Fab capture kit, GE Healthcare) was performed on a CM5 chip at pH5.0 using the standard amine coupling kit (GE Healthcare). Anti-FolR1 IgGs or T cell bispecifics were captured at 20 nM with a flow rate of 10 μl/min for 20 or 40 sec, the reference flow cell was left without capture. […] The dissociation phase was monitored for 240 sand triggered by switching from the sample solution to HBS-EP. The chip surface was regenerated after every cycle using a double injection of 60 sec 10 mM Glycine-HCl pH 2.1 or pH1.5. Bulk refractive index differences were corrected for by subtracting the response obtained on the reference flow cell 1. The affinity constants for the interactions were derived from the rate constants by fitting to a 1:1 Langmuir binding using the Bia Evaluation software (GE Healthcare).
The target of assay [24] is T1, human TIM-3 on cells. Kind of assay: cell-based or functional assay. The source holds these as a separate data set.

The EC50 is the concentration giving half of the maximal effect. Low readings indicate greater potency, high ones weaker potency.

Where “and” joins values, the source holds several entries; their conditions need not be identical. Identical values can stand only once.

B1: Tim3_0033 Fab-PE24 construct (Fab, V domains shown)
VH: QGQMHQSGAELVKPGSSVKLSCKTSGFTFSSSFISWLKQKPGQSLEWIAWIYAATGSTSYNQKFTNKAQLTVDTSSSAAYMQFSSLTTEDSAIYYCARHAGYPHYYAMDYWGQGTSVTVSS
VL: DIQMTQSPASLSASVGETVTITCRASENIFSNLAWYQQKQGKSPQLLVYSATNLGDGVPSRFSGSGSGTQFSLKINSLQPEDFGNYYCQHFYKIPFTFGTGTKLEIK
For the molecule B1, in [1], the “Max. killing, Pfeiffer cells” value came to 99.8% and the “Max. killing, RPMI-8226 cells” value was found to be 99.7%.

B2: Tim3_0022 (antibody, V domains shown)
VH: EVQLQESGPSLVKPSQTLSLTCSVTGDSIASAYWNWIRKFPGNKLEYMGYINYSGSTYYNPSLKSRISITRDTSQNQYYLQLNSVTTEDTATYYCVTGDYFDYWGRGTTLTVSS
VL: DIQMTQSPSSLSAYLGGKVTITCKARQDVRKNIGWYQHKPGKGPRLLIWYTSTLQSGIPSRFSGSGSGRDYSFNINNLEPEDIATYYCLQYDNLPFTFGTGTKLEIR
Take B2: the MFI in [2] was 138 MFI; in assay [3], 134 MFI; in [8], 115 MFI. The Kd in assay [4] was 28.4 nM; in [5] it was 126 nM. In addition, the “specific binding MFI” value in assay [6] came out at 1240 MFI; in assay [7] it was 1470 MFI; in assay [9], 1110 MFI.

B3: Tim3_0016 variant (Tim3_0018) (antibody, V domains shown)
VH: QVTLKESGPGILQPSQTLSLTCSFSGFSLSTSGMSVGWIRQPSGKGLEWLAHIWLNDDVFFNPALKRRLTISKDTSNNQVFLQIASVVTADTATYYCVRANGYLYALDYWGQGISVTVSS
VL: QIVLTQSPAIMSASPGQKVTITCSASSSVNYTQWYQQKLGSSPKLWIYDAFKLAPGVPARFSGSGTGTSYSLTISSMEAEDAASYFCHQWSSYPWTFGGGTKLEIK
notes: also called TIM3-0016 variant (0018); aTim3 0018
For B3, the MFI in assay [2] was 417 MFI; in [3], 480 MFI; in assay [8], 301 MFI. Further, the inflexion point turned out to be 29.4 ng/mL in [10], 15.3 ng/mL in assay [12] and 14.6 ng/mL in assay [17]. Also, the EC50 was 0.0161 µg/mL in assay [11]; 0.0264 µg/mL in [14]; 0.56 nM and 0.094 µg/mL in [18]; 0.52 nM and 0.087 µg/mL in assay [19]; 0.0146 µg/mL in assay [21]. Further, the Kd in assay [13] came to 3.4 nM; in [15], 1.1 nM; in [16], 1.11 nM; in assay [4], 41.9 nM; in assay [5] it was 3.4 nM. Also, the figures for the “specific binding MFI” value in [6], in assay [7] and in assay [9] were 1940 MFI, 2330 MFI and 1820 MFI, respectively. Also, the “IFN-gamma release in MLR at 1 µg/ml, % of IL-2 control” value in assay [20] was found to be 12%. The “IFN-gamma release in MLR at 10 µg/ml, % of IL-2 control” value in assay [20] stood at 30%. Besides, the “IFN-gamma release in MLR at 40 µg/ml, % of IL-2 control” value in [20] was found to be 36%.

B4: Tim3_0016 (antibody, V domains shown)
VH: QVTLKESGPGILQPSQTLRLTCSFSGFSLSTSGMSVGWIRQPSGKGLEWLAHIWLNDDVFFNPALKSRLTISKDTSNNQVFLQIASVVTADTATYYCVRANGYLYALDYWGQGTSVTVSS
VL: QIVLTQSPAIMSASPGQKVTITCSASSSVNYTQWYQQKLGSSPKLWIYDAFKLAPGVPARFSGSGTGTSYSLTISSMEAEDAASYFCHQWSSYPWTFGGGTKLEIK
notes: also called clone 0016
For the molecule B4, the MFI in assay [2] stood at 187 MFI; in assay [3], 177 MFI; in [8] it was 157 MFI. Besides, the Kd in [4] came out at 21.6 nM. The “specific binding MFI” value in assay [6] is 1690 MFI; in assay [7], 2120 MFI; in assay [9] it was 1630 MFI. The “IFN-gamma release in MLR at 1 µg/ml, % of IL-2 control” value in assay [20] was 7%. Besides, the “IFN-gamma release in MLR at 10 µg/ml, % of IL-2 control” value in [20] is 22%.

B5: Farletuzumab (antibody, V domains shown)
VH: EVQLVESGGGVVQPGRSLRLSCSASGFTFSGYGLSWVRQAPGKGLEWVAMISSGGSYTYYADSVKGRFAISRDNAKNTLFLQMDSLRPEDTGVYFCARHGDDPAWFAYWGQGTPVTVSS
VL: DIQLTQSPSSLSASVGDRVTITCSVSSSISSNNLHWYQQKPGKAPKPWIYGTSNLASGVPSRFSGSGSGTDYTFTISSLQPEDIATYYCQQWSSYPYMYTFGQGTKVEIKR
B5: the Kd in assay [22] came out at 0.65 nM; in assay [23], 67.3 nM.

B6: Tim3_0021 Fab-PE24 construct (Fab, V domains shown)
VH: QVQLQQSGPQLVRPGASVQISCKASGYSFTSYLLHWLKQRPGQGLEWIGMIDPSDSETRLNQKFKDKATLTVDKSSSTAYMQLSSPTSEDSAVYYCARDGYYAWYYFDCWGQGTTLTVSS
VL: DIVLTQSPATLSVTPGDRVSLSCRASQSIGNNLHWYQQKSHESPRLLIKYASHSISGIPSKFSGTGSGTDFTLSFNSVETEDFGMYFCQQSNSWPLTFGAGTKLELK
As to B6, in [1], the “Max. killing, Pfeiffer cells” value was determined as 98.4%.

B7: Tim3_0021 (antibody, V domains shown)
VH: QVQLQQSGPQLVRPGASVQISCKASGYSFTSYLLHWLKQRPGQGLEWIGMIDPSDSETRLNQKFKDKATLTVDKSSSTAYMQLSSPTSEDSAVYYCARDGYYAWYYFDCWGQGTTLTVSS
VL: DIVLTQSPATLSVTPGDRVSLSCRASQSIGNNLHWYQQKSHESPRLLIKYASHSISGIPSKFSGTGSGTDFTLSFNSVETEDFGMYFCQQSNSWPLTFGAGTKLELK
Consider B7, for which the MFI worked out at 399 MFI in [2], 473 MFI in [3] and 348 MFI in assay [8]. Also, the Kd in [13] turned out to be 204 nM; in assay [15], 4.1 nM; in assay [16], 4.07 nM; in [5] it was 204 nM. Further, the “internalization at 30 Min, RPMI-8226” value in [24] came out at 70%. The “internalization at 60 Min, RPMI-8226” value in assay [24] came out at 75%. In addition, the “internalization at 120 Min, RPMI-8226” value in assay [24] turned out to be 74%. Moreover, in [24], the “internalization at 240 Min, RPMI-8226” value came out at 78%. In addition, the “internalization at 26 h, RPMI-8226” value in assay [24] is 77%. The figures for the EC50 in [18] and in [19] were 0.047 µg/mL and 0.073 µg/mL, respectively. The “specific binding MFI” value came to 1200 MFI in [6], 1130 MFI in [7] and 951 MFI in assay [9]. Besides, in [20], the “IFN-gamma release in MLR at 1 µg/ml, % of IL-2 control” value stood at 101%. Moreover, the “IFN-gamma release in MLR at 10 µg/ml, % of IL-2 control” value in [20] worked out at 108%. In addition, the “IFN-gamma release in MLR at 40 µg/ml, % of IL-2 control” value in [20] came out at 112%.
